The target of the experiment is tumor necrosis factor-α (TNF-α) (human) (UniProt P01375). The experiment can be described thus: 35S free protein + biotin-TNF-α in solution, biotin capture membrane, phosphorimaging.
tumor necrosis factor-α (TNF-α) (human), sequence (P01375 77-233 limits assumed): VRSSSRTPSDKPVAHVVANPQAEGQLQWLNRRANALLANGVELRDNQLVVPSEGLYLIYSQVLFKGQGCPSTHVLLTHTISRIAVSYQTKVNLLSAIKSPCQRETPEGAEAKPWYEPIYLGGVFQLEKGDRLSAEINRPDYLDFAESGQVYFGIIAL

B1: T14.06 (designed binder)
chain: VSDVPRDLEVVAATPTSLLISWTRTNASTRYYRITYGETGGNSPVQEFTVPNFWWTATISGLKPGVDYTITVYAVTSPDETSAYSEPISINYRT
One may read the Kd as the concentration at which binding is half-saturated. As to B1, the Kd was 1.4 nM.

The record behind these values is US20170334958A1.
